Values of other authors, collected in patent publication US12305171B2, “Compositions and methods for treating cancer” (bioAffinity Technologies, Inc., priority 2018, dated 2025).
Read-outs that look alike come from different tables or passages of the source.

Settings: cited from earlier work

Molecule	plasma half-life (desialylated, less abundant form)	plasma half-life (sialylated, most abundant form)	plasma half-life (in vivo)
TCN1: plasma glycoprotein chaperone of cobalamin, sialylated and desialylated forms (protein, UniProt P20061 24-433, looked up) Transcobalamin-1: EICEVSEENYIRLKPLLNTMIQSNYNRGTSAVNVVLSLKLVGIQIQTLMQKMIQQIKYNVKSRLSDVSSGELALIILALGVCRNAEENLIYDYHLIDKLENKFQAEIENMEAHNGTPLTNYYQLSLDVLALCLFNGNYSTAEVVNHFTPENKNYYFGSQFSVDTGAMAVLALTCVKKSLINGQIKADEGSLKNISIYTKSLVEKILSEKKENGLIGNTFSTGEAMQALFVSSDYYNENDWNCQQTLNTVLTEISQGAFSNPNAAAQVLPALMGKTFLDINKDSSCVSASGNFNISADEPITVTPPDSQSYISVNYSVRINETYFTNVTVLNGSVFLSVMEKAQKMNDTIFGFTMEERSWGPYITCIQGLCANNNDRTYWELLSGGEPLSQGAGSYVVRNGENLEVRWSKY	a few minutes	about 10 days	–
TCN2-Cbl: complex of transcobalamin 2 (TCN2) with cobalamin (vitamin B12) (protein, UniProt P20062 19-427, looked up, complexed with cobalamin) Transcobalamin-2: EMCEIPEMDSHLVEKLGQHLLPWMDRLSLEHLNPSIYVGLRLSSLQAGTKEDLYLHSLKLGYQQCLLGSAFSEDDGDCQGKPSMGQLALYLLALRANCEFVRGHKGDRLVSQLKWFLEDEKRAIGHDHKGHPHTSYYQYGLGILALCLHQKRVHDSVVDKLLYAVEPFHQGHHSVDTAAMAGLAFTCLKRSNFNPGRRQRITMAIRTVREEILKAQTPEGHFGNVYSTPLALQFLMTSPMRGAELGTACLKARVALLASLQDGAFQNALMISQLLPVLNHKTYIDLIFPDCLAPRVMLEPAAETIPQTQEIISVTLQVLSLLPPYRQSISVLAGSTVEDVLKKAHELGGFTYETQASLSGPYLTSVMGKAAGEREFWQLLRDPNTPLLQGIADYRPKDGETIELRLVSW	–	–	1 to 15 h
